Here are results for one substance from article PMC7875332.

This experiment concerns the target ACE2 receptor on Vero E6 cells (African green monkey (endogenous in Vero E6)). As to the kind of experiment: flow cytometry on cells; HIS-tagged S protein incubated with 1.5 × 10^5 Vero E6 cells (ACE2+), 37°C for 1 hour, in 1% BSA in PBS with 0.02% sodium azide; detected with FITC-labeled anti-HIS Ab. Background: In flow cytometry, cells or beads pass a laser one at a time.

Consider “recombinant SARS-CoV-2 S protein, fused with a HIS tag at the C terminus (from UniProt P0DTC2) (natural protein)”, for which the concentration at binding saturation was 200 nM.
